Experimental data published in patent US20210355220A1 (TIKCRO TECHNOLOGIES, published 2021).

Experiments:
hPDL2 on HEK293 cells = target: T1, hPDL2 on HEK293 cells (human, UniProt Q9BQ51 20-273); assay: flow cytometry on transfected HEK293 cells
T1 construct: whole, on cells
T1 sequence (looked up): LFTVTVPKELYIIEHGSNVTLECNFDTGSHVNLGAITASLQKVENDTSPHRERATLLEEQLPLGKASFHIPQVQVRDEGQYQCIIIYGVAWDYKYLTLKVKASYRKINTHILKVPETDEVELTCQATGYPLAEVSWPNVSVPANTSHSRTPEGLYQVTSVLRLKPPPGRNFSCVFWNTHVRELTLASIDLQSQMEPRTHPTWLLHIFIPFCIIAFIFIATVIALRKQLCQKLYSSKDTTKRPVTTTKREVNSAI
Description: (§1) HEK293 cells were transfected with expression vectors of the following immune-related proteins: hBTLA, hICOS, hCD28, hPDL1, hPD1, hPDL2, and hCTLA-4. Over-expression of the proteins was verified using commercial antibodies against each target. […] Antibody binding to cells was then detected using flow cytometry. Cells that were incubated only with the secondary antibody were used as a background control. […] Note that “+” indicates binding above the background level and “-” indicate no binding as compared to the background level.

hPD1 on HEK293 cells = target: T2, hPD1 on HEK293 cells (human, UniProt Q15116 25-288); assay: flow cytometry on transfected HEK293 cells
T2 construct: whole, on cells
T2 sequence (Q15116 25-288): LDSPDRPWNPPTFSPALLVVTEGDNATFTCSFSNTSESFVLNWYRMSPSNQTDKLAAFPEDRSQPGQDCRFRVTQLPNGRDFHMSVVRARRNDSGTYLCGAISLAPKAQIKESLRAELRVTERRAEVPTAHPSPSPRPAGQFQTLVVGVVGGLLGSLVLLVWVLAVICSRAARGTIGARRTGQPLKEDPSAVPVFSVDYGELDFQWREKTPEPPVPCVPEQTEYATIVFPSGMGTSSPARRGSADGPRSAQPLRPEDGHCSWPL
Description: as §1

hBTLA on HEK293 cells = target: T3, hBTLA on HEK293 cells (human, UniProt Q7Z6A9 31-289); assay: flow cytometry on transfected HEK293 cells
T3 construct: whole, on cells
Description: as §1

hCD28 on HEK293 cells = target: T4, hCD28 on HEK293 cells (human, UniProt P10747 19-220); assay: flow cytometry on transfected HEK293 cells
T4 construct: whole, on cells
Description: as §1

hPDL1 on HEK293 cells = target: T5, hPDL1 on HEK293 cells (human, UniProt Q9NZQ7 19-290); assay: flow cytometry on transfected HEK293 cells
T5 construct: whole, on cells
T5 sequence (Q9NZQ7 19-290): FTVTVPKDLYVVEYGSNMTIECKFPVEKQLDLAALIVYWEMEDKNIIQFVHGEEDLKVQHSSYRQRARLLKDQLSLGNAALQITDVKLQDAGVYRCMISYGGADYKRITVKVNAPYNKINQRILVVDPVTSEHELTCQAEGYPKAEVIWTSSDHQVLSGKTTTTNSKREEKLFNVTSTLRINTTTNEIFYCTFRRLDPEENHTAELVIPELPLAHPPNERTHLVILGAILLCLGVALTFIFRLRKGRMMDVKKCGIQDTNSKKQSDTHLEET
Description: as §1

hICOS on HEK293 cells = target: T6, hICOS on HEK293 cells (human, UniProt Q9Y6W8 21-199); assay: flow cytometry on transfected HEK293 cells
T6 construct: whole, on cells
T6 sequence (looked up): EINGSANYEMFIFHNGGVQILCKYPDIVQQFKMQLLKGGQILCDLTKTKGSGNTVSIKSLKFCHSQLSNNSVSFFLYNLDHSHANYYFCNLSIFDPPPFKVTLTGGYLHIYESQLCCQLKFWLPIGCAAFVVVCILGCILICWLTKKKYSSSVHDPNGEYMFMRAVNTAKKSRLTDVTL
Description: as §1

[1] = target: T7, Pig (Sus scrofa) CTLA-4 on HEK293 cells (Sus scrofa, UniProt Q9MYX7 36-223); assay: flow cytometry on HEK293 cells transiently expressing pig CTLA-4
T7 construct: whole, on cells; also called pig CTLA-4
T7 sequence (Q9MYX7 36-223): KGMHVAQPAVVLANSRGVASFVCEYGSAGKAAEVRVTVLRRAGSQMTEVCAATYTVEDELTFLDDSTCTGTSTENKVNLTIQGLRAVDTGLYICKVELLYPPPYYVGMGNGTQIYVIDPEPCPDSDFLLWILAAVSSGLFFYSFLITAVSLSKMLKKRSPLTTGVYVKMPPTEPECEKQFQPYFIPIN
Description: Macaque (Macaca fascicularis), pig (Sus scrofa) and mouse (Mus musculus) CTLA-4 proteins were transiently expressed on the surface of HEK293 cells. […] Binding was measured using FACS and analyzed.

MFI (hPDL2 on HEK293 cells): 73 MFI
MFI (hPD1 on HEK293 cells): 77 MFI
MFI (hBTLA on HEK293 cells): 67 MFI
MFI (hCD28 on HEK293 cells): 67 MFI
MFI (hPDL1 on HEK293 cells): 70 MFI
MFI (hICOS on HEK293 cells): 67 MFI
EC50 [1]: 671 nM
B1: Ipilimumab (antibody, V domains shown)
VH: QVQLVESGGGVVQPGRSLRLSCAASGFTFSSYTMHWVRQAPGKGLEWVTFISYDGNNKYYADSVKGRFTISRDNSKNTLYLQMNSLRAEDTAIYYCARTGWLGPFDYWGQGTLVTVSS
VL: not shown
